Patent US20220169693A1, “Screening Assays, Modulators and Modulation of Intracellular Signalling Mediated by Immunoglobulin Superfamily Cell Adhesion Molecules” (Monash University, priority 2018, published 2022)

Tests used:
AT1R = target: T1, AT1R (Homo sapiens, UniProt P30556); test: Functional competition: Ang II-induced p65/PCNA expression in AT1R-CHO cells transfected with full length mutant S391A-RAGE; assay type: cell-based; conditions: for transactivation of the over-expressed cytosolic tail in the presence of S391A-RAGE1-404 (p65): Ang II 1 μM 2 h (FIG. 7A)
T1 construct: Rluc8; expressed in transfected cells; S391A-RAGE transiently transfected
T1 sequence (P30556 1-359): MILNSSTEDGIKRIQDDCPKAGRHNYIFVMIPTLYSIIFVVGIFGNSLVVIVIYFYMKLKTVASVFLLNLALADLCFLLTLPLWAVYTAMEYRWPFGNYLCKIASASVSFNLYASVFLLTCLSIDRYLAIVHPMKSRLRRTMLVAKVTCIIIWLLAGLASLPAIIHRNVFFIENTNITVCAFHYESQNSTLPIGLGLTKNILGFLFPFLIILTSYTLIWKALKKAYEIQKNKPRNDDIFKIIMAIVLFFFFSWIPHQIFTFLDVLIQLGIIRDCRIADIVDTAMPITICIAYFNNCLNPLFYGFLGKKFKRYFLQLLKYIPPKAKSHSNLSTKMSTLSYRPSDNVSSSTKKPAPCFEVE
Experimental: Adult retinal pigment epithelial (ARPE) cells were cultured in Dulbecco's modified Eagle's medium (DMEM)/F12 endothelial cell growth supplement (ECGS) supplemented media. Chinese Hamster Ovary (CHO) cells were cultured using F12 media (10% FCS with 2 mM glutamine). Human microvascular endothelial cells (HMEC) were cultured in MCDB 131 medium (10% FCS with 10 mM glutamine, EGF and hydrocortisone).
100 ng of AT1R-Rluc8 construct was transfected into CHO cells using Lipofectamine 2000 (Thermo). Stable transfectants were selected using G418. AT1R-CHO were then transiently transfected with the IgSF CAM and/or RAGE constructs using Lipofectamine 2000 (Invitrogen) and incubated for 16h.
After 2 hours of exposure to Ang II (1 μM) cells were placed in Trizol, mRNA extracted and cDNA synthesized. Changes in the gene expression of the NFκB subunit, p65 (RelA) or NFκB-activated target genes (e.g ICAM-1) were estimated by quantitative real-time RT-PCR, performed using the TaqMan system based on real-time detection of accumulated fluorescence (ABI Prism 7700, Perkin-Elmer Inc, PE Biosystems, Foster City, Calif., USA). Gene expression was normalized to 18S mRNA and reported as fold change compared to the level of expression in untreated control mice/cells, which were given an arbitrary value of 1.

[1] = target: T2, untagged RAGE (RAGE cDNA co-transfected) (UniProt Q15109 23-404); test: BRET saturation assay, competition with EpCAM/Rluc8 (FIG. 11D)
T2 construct: whole, on cells
T2 sequence (Q15109 23-404): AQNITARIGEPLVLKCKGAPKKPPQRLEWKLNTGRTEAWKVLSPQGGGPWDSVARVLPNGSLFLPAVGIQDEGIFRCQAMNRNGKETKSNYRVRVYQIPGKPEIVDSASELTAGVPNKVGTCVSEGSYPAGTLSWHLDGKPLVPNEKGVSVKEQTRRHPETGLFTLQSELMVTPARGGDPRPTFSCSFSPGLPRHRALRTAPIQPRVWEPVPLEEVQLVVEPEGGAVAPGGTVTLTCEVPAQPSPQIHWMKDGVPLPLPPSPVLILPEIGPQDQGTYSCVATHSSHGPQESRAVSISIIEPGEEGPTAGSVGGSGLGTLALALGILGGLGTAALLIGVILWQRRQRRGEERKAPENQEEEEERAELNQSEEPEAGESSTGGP
Experimental: (§1) The BRET ratio was calculated by subtracting the ratio of ‘acceptor emission’ over ‘donor emission’ for a cell sample expressing Rluc8-tagged protein alone from the same ratio for a cell sample expressing both Rluc8 and Venus-tagged proteins. Alternatively, the ligand-induced BRET signal was calculated by subtracting the ratio of ‘acceptor emission’ over ‘donor emission’ for a vehicle-treated cell sample from the same ratio for a second aliquot of the same cells treated with agonist.
(§2) For the BRET kinetic assays, the final pre-treatment reading is presented at the zero time point (time of ligand/vehicle addition). For the BRET saturation assays, fluorescence after light excitation was measured on an EnVision 2102 multi-label plate reader (PerkinElmer, Glen Waverley, Victoria, Australia) using a 485/14 excitation filter, 535/25 emission filter and D505 mirror. The fluorescence/luminescence ratio was generated by dividing the fluorescence values in arbitrary units (obtained with the EnVision) by the luminescence values also in arbitrary units (obtained as part of the BRET assay).

[2] = target: T3, Rluc8-labelled CADM4 (CADM4/Rluc8) (UniProt Q8NFZ8 21-388); test: BRET saturation assay (FIG. 12D)
T3 construct: whole, on cells; not shown: Rluc8, a variant of Renilla luciferase
T3 sequence (looked up): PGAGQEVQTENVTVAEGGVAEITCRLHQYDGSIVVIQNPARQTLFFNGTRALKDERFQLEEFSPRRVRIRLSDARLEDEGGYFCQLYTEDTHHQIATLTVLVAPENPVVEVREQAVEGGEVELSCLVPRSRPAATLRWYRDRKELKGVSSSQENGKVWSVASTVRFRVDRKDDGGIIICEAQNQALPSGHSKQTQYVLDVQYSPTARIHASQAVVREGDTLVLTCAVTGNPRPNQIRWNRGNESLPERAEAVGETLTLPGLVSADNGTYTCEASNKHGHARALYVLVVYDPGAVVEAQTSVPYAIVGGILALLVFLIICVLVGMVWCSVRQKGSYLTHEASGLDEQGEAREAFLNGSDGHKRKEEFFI
Experimental: as §1, §2

RAGE/Rluc8 = target: T4, RAGE/Rluc8 (UniProt Q15109 23-404); test: BRET saturation assay (FIGS. 13A, 13D)
T4 construct: whole, on cells; not shown: Rluc8, a variant of Renilla luciferase
T4 sequence (Q15109 23-404): as the sequence (Q15109 23-404) above
Experimental: as §1, §2

[3] = target: T3, Rluc8-labelled CADM4 (CADM4/Rluc8); test: Receptor-HIT BRET: CADM4/Rluc8 + β-arrestin2/Venus ± untagged AT1, after AngII
Experimental: as §1
(§3) GPCRs untagged with respect to the BRET system were then co-expressed in the HEK293FT cells, or the cells were transfected with pcDNA3 as a control. […] A ligand-induced BRET signal was indicative of recruitment of the BRET-tagged β-arrestin2 proximal to the BRET-tagged CAM, thereby indicating close proximity between the CAM and the activated GPCR.

human ALCAM/Rluc8 = target: T5, human ALCAM/Rluc8 (human, UniProt Q13740 28-583); test: Receptor-HIT BRET: ALCAM/Rluc8 + β-arrestin2/Venus ± untagged AT1, after AngII
T5 construct: also called ALCAM/Rluc8 (human ALCAM); not shown: Rluc8, a variant of Renilla luciferase
T5 sequence: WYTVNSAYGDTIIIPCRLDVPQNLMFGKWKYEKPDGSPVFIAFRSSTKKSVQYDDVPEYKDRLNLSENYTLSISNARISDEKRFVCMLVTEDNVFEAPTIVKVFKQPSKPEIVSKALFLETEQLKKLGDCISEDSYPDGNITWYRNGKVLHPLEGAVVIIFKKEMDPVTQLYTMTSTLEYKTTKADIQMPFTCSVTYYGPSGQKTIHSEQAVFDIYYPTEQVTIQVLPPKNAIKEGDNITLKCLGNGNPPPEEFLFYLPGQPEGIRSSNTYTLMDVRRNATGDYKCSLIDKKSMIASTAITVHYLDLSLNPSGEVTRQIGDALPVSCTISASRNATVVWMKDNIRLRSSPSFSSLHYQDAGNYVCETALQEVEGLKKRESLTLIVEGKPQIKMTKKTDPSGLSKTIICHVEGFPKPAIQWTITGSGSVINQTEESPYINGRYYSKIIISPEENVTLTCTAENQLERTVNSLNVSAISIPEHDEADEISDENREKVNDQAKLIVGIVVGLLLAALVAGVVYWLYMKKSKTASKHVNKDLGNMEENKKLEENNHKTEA
Experimental: as §1, §3

mouse ALCAM/Rluc8 = target: T6, mouse ALCAM/Rluc8 (mouse, UniProt Q61490 28-583); test: as above
T6 construct: also called ALCAM/Rluc8 (mouse ALCAM); not shown: Rluc8, a variant of Renilla luciferase
T6 sequence: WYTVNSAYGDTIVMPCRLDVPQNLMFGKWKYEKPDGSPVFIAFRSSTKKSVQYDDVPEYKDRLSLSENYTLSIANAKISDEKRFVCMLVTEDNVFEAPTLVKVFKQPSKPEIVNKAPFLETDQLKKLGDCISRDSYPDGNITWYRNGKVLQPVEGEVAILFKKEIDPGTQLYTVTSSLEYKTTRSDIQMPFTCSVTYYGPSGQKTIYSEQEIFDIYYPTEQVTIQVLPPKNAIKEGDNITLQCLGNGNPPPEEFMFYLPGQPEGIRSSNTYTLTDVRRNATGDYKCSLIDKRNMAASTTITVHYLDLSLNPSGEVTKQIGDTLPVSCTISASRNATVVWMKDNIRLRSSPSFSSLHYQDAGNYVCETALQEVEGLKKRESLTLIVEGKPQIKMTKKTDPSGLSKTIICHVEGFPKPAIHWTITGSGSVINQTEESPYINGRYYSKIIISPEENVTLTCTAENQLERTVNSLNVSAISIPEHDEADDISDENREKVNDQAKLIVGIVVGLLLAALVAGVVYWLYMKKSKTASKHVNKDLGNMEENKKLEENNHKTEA
Experimental: as §1, §3

[4] = target: T7, Venus-labelled mouse ALCAM (ALCAM/Venus) (mouse, UniProt Q61490 28-583); test: Receptor-HIT BRET: ALCAM/Venus + β-arrestin2/Rluc8 ± untagged AT1, after AngII
T7 construct: also called mouse ALCAM/Venus; not shown: Venus, a variant of green fluorescent protein
T7 sequence: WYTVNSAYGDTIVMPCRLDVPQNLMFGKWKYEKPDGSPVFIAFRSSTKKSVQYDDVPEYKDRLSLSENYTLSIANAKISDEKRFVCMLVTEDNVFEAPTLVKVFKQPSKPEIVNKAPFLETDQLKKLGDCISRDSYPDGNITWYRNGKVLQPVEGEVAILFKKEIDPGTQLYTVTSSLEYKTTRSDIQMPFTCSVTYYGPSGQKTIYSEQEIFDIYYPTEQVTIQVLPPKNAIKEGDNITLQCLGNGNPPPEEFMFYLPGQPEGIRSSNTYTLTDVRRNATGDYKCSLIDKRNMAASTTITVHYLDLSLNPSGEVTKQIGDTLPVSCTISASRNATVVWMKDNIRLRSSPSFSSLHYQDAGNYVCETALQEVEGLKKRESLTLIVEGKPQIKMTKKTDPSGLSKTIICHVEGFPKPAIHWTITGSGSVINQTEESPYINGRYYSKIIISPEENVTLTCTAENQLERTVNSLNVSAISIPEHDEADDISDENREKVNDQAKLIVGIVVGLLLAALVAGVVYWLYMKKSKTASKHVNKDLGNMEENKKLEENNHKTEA
Experimental: as §1, §3

[5] = target: T8, Venus-labelled CADM4 (CADM4/Venus) (UniProt Q8NFZ8 21-388); test: Receptor-HIT BRET: CADM4/Venus + β-arrestin2/Rluc8 ± untagged AT1, after AngII
T8 construct: whole, on cells; not shown: Venus, a variant of green fluorescent protein
T8 sequence (looked up): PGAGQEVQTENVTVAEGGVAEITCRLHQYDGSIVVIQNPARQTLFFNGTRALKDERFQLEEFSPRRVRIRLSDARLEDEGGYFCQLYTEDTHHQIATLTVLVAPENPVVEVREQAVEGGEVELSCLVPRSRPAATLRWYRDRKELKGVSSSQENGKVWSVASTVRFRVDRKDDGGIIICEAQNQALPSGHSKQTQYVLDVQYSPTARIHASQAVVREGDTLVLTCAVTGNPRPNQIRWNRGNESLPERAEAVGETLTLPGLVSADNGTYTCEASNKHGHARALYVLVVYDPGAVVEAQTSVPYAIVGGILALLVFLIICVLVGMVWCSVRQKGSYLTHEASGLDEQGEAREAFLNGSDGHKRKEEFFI
Experimental: as §1, §3

In the case of “MSVRQKGSYLTHEASGLDEQGEAREAFLNGSDGHKRKEEFFI [CADM4336-388]”, the “transactivation of the over-expressed cytosolic tail in the presence of S391A-RAGE1-404 (p65)” value (AT1R; AT1R-CHO cells) is reported as “able to overcome inhibition of transactivation”.

“MKKSKTASKHVNKDLGNMEENKKLEENNHKTEA (Synthetic peptide - Truncated amino acid sequence of human ALCAM protein corresponding to residues 551 to 583 (corresponding to the cytosolic tail of ALCAM)) [ALCAM551-583]” was tested, and the “transactivation of the over-expressed cytosolic tail in the presence of S391A-RAGE1-404 (p65)” value (AT1R; AT1R-CHO cells) was “able to overcome inhibition of transactivation”.

“S391A-RAGE1-404: full length human mutant S391A-RAGE” was tested, and the “ability of Ang II to induce p65-NFκB expression after transfection of the mutant” value (AT1R; AT1R-CHO cells, Ang II 1 μM 2 h, vs pCIneo (FIG. 7A)) was “fails to confer the ability of Ang II to induce expression” and the “transactivation by AT1R as indicated by PCNA expression after transfection of the mutant” value (AT1R; Ang II 1 μM 2 h, vs pCIneo (FIG. 7B)) was “unable to be transactivated”.

B1: Venus-tagged Angiotensin II receptor 1 (AT1/Venus) (receptor, UniProt P30556 1-359, looked up)
chain: MILNSSTEDGIKRIQDDCPKAGRHNYIFVMIPTLYSIIFVVGIFGNSLVVIVIYFYMKLKTVASVFLLNLALADLCFLLTLPLWAVYTAMEYRWPFGNYLCKIASASVSFNLYASVFLLTCLSIDRYLAIVHPMKSRLRRTMLVAKVTCIIIWLLAGLASLPAIIHRNVFFIENTNITVCAFHYESQNSTLPIGLGLTKNILGFLFPFLIILTSYTLIWKALKKAYEIQKNKPRNDDIFKIIMAIVLFFFFSWIPHQIFTFLDVLIQLGIIRDCRIADIVDTAMPITICIAYFNNCLNPLFYGFLGKKFKRYFLQLLKYIPPKAKSHSNLSTKMSTLSYRPSDNVSSSTKKPAPCFEVE
notes: whole, on cells; not shown: Venus, a variant of green fluorescent protein
B1: binds [1]; binds [2]; binds (RAGE/Rluc8).

B2: AT1 (untagged, co-expressed in HEK293FT cells) (receptor, UniProt P30556 1-359, looked up)
chain: MILNSSTEDGIKRIQDDCPKAGRHNYIFVMIPTLYSIIFVVGIFGNSLVVIVIYFYMKLKTVASVFLLNLALADLCFLLTLPLWAVYTAMEYRWPFGNYLCKIASASVSFNLYASVFLLTCLSIDRYLAIVHPMKSRLRRTMLVAKVTCIIIWLLAGLASLPAIIHRNVFFIENTNITVCAFHYESQNSTLPIGLGLTKNILGFLFPFLIILTSYTLIWKALKKAYEIQKNKPRNDDIFKIIMAIVLFFFFSWIPHQIFTFLDVLIQLGIIRDCRIADIVDTAMPITICIAYFNNCLNPLFYGFLGKKFKRYFLQLLKYIPPKAKSHSNLSTKMSTLSYRPSDNVSSSTKKPAPCFEVE
notes: whole, on cells; Untagged with respect to BRET (Receptor-HIT assays); also called Angiotensin II receptor 1
B2: binds [3]; binds (human ALCAM/Rluc8); binds (mouse ALCAM/Rluc8). B2: binds [4]; binds [5].
